The text below walks through data of the DeepSol protein solubility set.

A short description of the data set: soluble on expression in E. coli; label from the status in PepcDB or PDB records.
With “MKKTQRKEIENVTNITGVRQIELWRRDDLQHPRLDEVAEEVPVALVYNGISHVVMMASPKDLEYFALGFSLSEGIIESPRDIFGMDVVPSCNGLEVQIELSSRRFMGLKERRRALAGRTGCGVCGVEQLNDIGKPVQPLPFTQTFDLNKLDDALRHLNDFQPVGRLTGCTHAAAWMLPSGELVGGHEDVGRHVALDKLLGRRSQEGESWQQGAVLVSSRASYEMVQKSAMCGVEILFAVSAATTLAVEVAERCNLTLVGFCKPGRATVYTHPQRLSN”, the “soluble on expression in E. coli” value is given as “not soluble”.
Under “MGSDKIHHHHHHMDMLSFELIRDGNRPLYEQLYQQIRQEIIEGRLAYGTKLPSKRKLGQFLNLSQTTIELAYQQLVAEGYVESVSRKGYFVLAYEELAYVKTTPLPTSQRSNQQPAMRYDFHPSKIDGSSFPFSRWRKHAKDVIDEQHQSLVSLGHPQGDLSLRLEIATYLYHSRGVVCSPEQIIIGSGVEQLLPHIVFLLGKTTTYGIEDPGYHATRLILKSHERSAVPIPVDQNGLVIPSLVQSPVDVMYVTPAHQFPSGSILSVNRRRQLLNWAAASDRRYIIEDDYDSEFRYSGKSIPSLHSMDSERVIYLSTFSKSLMPSLRIGYMVLPRPLLERYQTEFPYYTCSVSRFDQTILTRFMKEGDFEKHLNRMRKIYRRKLDVVVHALRDVPFLKLTGESAGLHVVLSVSNGMGEQELLRRAKDSSIQVYGLSDYAQLPLSTAYPQIVLGFASLTEQQLMQGLTELVTAWQLK” stands “not soluble”; under “MGSDKIHHHHHHMEFFSTRNKILSINPNGLRSTSIQLRERIWNVFYKEEYDYYDTLEYTSYTTGIEDMMLEMGIKYEFPANKIYKNQNAEKLHKHVVQCEGMWYRIYDFIEKYLRVTDSEKTQRLTIEFNRILEEEVAPYRILNGLVVPIIGKSELNSIGETIDLEYESVSKHMTKALELYSDRKKPDYENSVKESISSVESMCSIITGLSGGAATLGNTLKKLKENGVNIHPALENAFKQLYGYTSDSGGIRHGSIEFVNVASEDAKYMLVSCSAFVNYLTEKWIKYNLK”, “not soluble”.
Turning to “MTDTQVTWLTQESHDRLKAELDQLIANRPVIAAEINDRREEGDLRENGGYHAAREEQGQQEARIRQLQDLLSNAKVGEAPKQSGVALPGSVVKVYYNGDKSDSETFLIATRQEGVSDGKLEVYSPNSPLGGALIDAKVGETRSYTVPNGSTVSVTLVSAEPYHS”, the “soluble on expression in E. coli” value is reported as “soluble”.
Under “MSLDLRKINLNLLLHLDTLLNELSVSKAAEKSFMSQTAMSHILKQLRDIFDDPLFIRKPHGLQPTQKVLDLAPKIKKFLNYSNDIFEEDTFNPGNDNLFLKTASVGTGEYFILPRLCAHLAKNAPKFVLKISSLSEYLSLEYLLMSELDFAIGPGFVETGNNIIRELLFEEEAVCIMHKSHPLANQELTQDMYLQAEHVDIQFSYMGNENILYKALQGYHQRNIKVIVPNIISALEVVYHTNFITTVPRTLAVTFKDRYQIELHPFPFPKKTFLVNFYYHKRLSNHKPLQWVLDVIKKYCCVNHEGHHHHHH” stands “soluble”; under “MGSDKIHHHHHHMMKSLPHMIGNEIKRIRKEKKMTQKELCDGICSQAEISKIENGRNSPTIDLLQQISKRLRVPLSLLFRDQLESDAFREADNHLSSLFREQKYQEMRLELLRTDAIHHNEIRLLKAYFTILLEVKTEKIDYRTASALLSRLTDQEDIWYESPKMFIRIKMAISNLHVENEQYHLAEKVYEELEELTYDTEELKKQLIKVYYNHSQLLTYEKKYKAGLKITEKGLSYSLSLNDASFIAHFYYQRGYYHEVMLGDDSSPAQRDYTISYALFRAFHLHTYEEIVLKGKERFLLFTF”, “not soluble”; under “MSLIPKFREFDRERHRTDYQKGMSYAEQQDFDMGFTIWFDHIEDLDLIEKDGTINRIVMMSTGLKDKNVKEIYESDIVRNLYGELYVVEWLDGSFVLTEFYNGGYDHYIIDSSTEYEVLGNIYENPELLEDDNHASNEGHHHHHH”, “soluble”.
For “MSLEPDELFDIEMRLLLHGVRQVYGHDFTDYSEASIKRRITQWFATSGYGTLSEAQAAILRNREAFDSLLRGITVNVSEMFRDPAFFRALREEIVPHLKTYPFVKIWHAGCSSGEEAYSLAILLEEEGMKGRFRMYATDINNEVLQNAREGIFPLKEMQKYTRNYQAAGGKGAFSDYYLARYEHAIMIQSLRDQIVFASHNLAVDADFGEMHLILCRNVLIYFKPTLKERVLRLFDTCLIPGGFLCLGLKESLDGRRIASRYAETVERMRIYRKSYGQEQSEGHHHHHH”, the “soluble on expression in E. coli” value was “not soluble”.
Under “MTRNPVVAGMFYPAEYHELLEMIEYCYLNPRGPRELPSKRGKYTKPLGIVSPHAGYIYSGPVAAHGYKKISENISGEITAIILGPNHTGLGSGIATMKGTWKTPFGDMEIDNEFADRLWKECDILDMDENSHLREHSIEVQLPFLKHLEDLNIAKFKFVPISMMMQDYESCIDVGYVIAKVARELNRKIVIIASTDFSHYEPQEQASKKDAVVIKDILELNDEEIFTDVVTHTISMCGYGPVIAMVKAMKDLGARTSYLLYYSTSGDVTKDYSEVVGYASLLIKLEHHHHHH” stands “soluble”.
Under “SLIKNGELKPGDKLDSVQALAESFQVSRSAVREALSALKAMGLVEMKQGEGTYLKEFELNQISQPLSAALLMKKEDVKQLLEVRKLLEIGVASLAAEKRTEADLERIQDALKEMGSIEADGELGEKADFAFHLALADASQNELLKHLMNHVSSLLLETMRETRKIWLFSKKTSVQRLYEEHERIYNAVAAGNGAQAEAAMLAHLTNVEDVLSGYFEENVQ” stands “soluble”.
Under “MANKNYQMSTGVTAVVQKVVEACQDESKRLDLIEIARSYPPNQLRNMQRTFQAITGTFLDAFLKKHLSKDFESLVLMLYKPRAQLLCELIRGATKGAGTDEKCLVDVLLTIETHEVREIRQLYYQLYNDSLGDVVRKDCGDKYMWAKLINAVATGDRIPRDTHELEEDLVLVRKAIETKGVKKDEVSTWIRIFATYTRADFRQLHKMYSAKYNGDSLRAGVEDEFQGLDEYAFKLAHDFLYDPCCAAAFSMNVAFAGSGSDSNRLNRITAMHFRECKGCKYYYKKVYGQAFDERCATELKGVYGDAIKLLWEPVTVPLLSMDDYQGSEQHRPMTLEL” stands “soluble”.
Consider “MGSDKIHHHHHHMIAQVEPFHAIAISRLAHDLEAAGQSVIHMEFGQPSTGAPAEAIALAHEVLDNEAMGYWESVPLKERIARSYAENHGVKVEREQVILTCGASPAFVMALSCLFRPGARIALARPGYVAYRNSLKAMYLEPVEMECGPAERFQVTAAAVDALDPVPDGLIVASPANPTGTIIEPGELAAIAEVCCRKGIRVISDEIYHGLSYGKAAASMLEYLPDAVIVNSFSKYFSMAGWRLGWLVVPPSLIDAARARMGSLFLTPPVLAQKAGLKAFDCRAELDGHVETYARNRAILLEALPQMGLGRIAPPDGAFYIYADASEFTDDSLALCEALLRDTGVATAPGLDFDPVNGKRFIRFSFAVSTPLIEEAVRRIGPWFAARRAVSPAQAPS”, for which the “soluble on expression in E. coli” value was “not soluble”.
Under “MGSDKIHHHHHHMEAEIELKLFFPENKREALVSLLNSLPHSDAKGAIHLTNSYYDTPDLQLRRWDMGLRIRGRDGQFEQTIKTAGTVVGGVHSRPEYNIDIDQAKVNLSLFPTEIWPEGAEIGPVQDALVSLFDTDFTRMSWHIYLDESLVEVALDIGSISANGQCEPICELEFELLAGDAQALLALAERVTEQIPARLGRASKAQRGYRLAAMASPLQLDTLAFIALPKKGTPKQALVTLLETGLDRWQLLEEMLLESRQAARQLPLLGYRLRACIRLLRCTLAQFSLLDDKLLQAFDAIESQLSFVDKGLSLCELLDGDGALLSNLSEPEGLLDAVRHELAALEMPQKIDAMLNHVTYGQLQVRLVSLLMAVNAGQVYISEQQSLQAFADRLQEASWQQIVDLMPSNAELSSEDYQSFAKALDESILVGVAYGELYKHKSRDQFRAPWQDLVLGIRTLGAYHSLRQTAATQGRDIDDWLDSKEQSLLFAMEHSRRSALKVQPYWR” stands “not soluble”.
Under “MSLQGIHTISFVGLGLIGASLMQALKRAAGATGRNIEMIGFDPAFDAADIVAITGECGLDRFEPDPAKLYNADLVVLCAPVVTNIALLDEAKRHIRKDTLVSDVSSTKAEIAAKAQELGIEFIGMHPIAGREQQGYQAASPELLDGRLVILCTECATLETTLATELAGLLRAAGCKPLFMSPEEHDRVYANISHLPQLISTALMAHCRENVEWAGPGFASMARLAGSPWAVWRDIVETNRSNIADEMEAFSALLADVAGEVRGGNFEALESKFREANDLYQRLQERSSEGHHHHHH” stands “soluble”; under “MGSDKIHHHHHHMLMSVTTENAPVQGQTTLQENSAGEGVYASLFEKINLTPASCLGDINDFLDDAALSEAPAAERLTAAMQVFMERIRQSGQRVEKLDKTLIDHHIAELDFQISRQLDAVMHHQEFQQVESLWRGLKQLVDNTDYRQNVKTEILDVAKDDLRQDFEDAPELIQSGLYWHTYTAEYDTPGGEPIGSVISAYEFDASPQDVALLRNISRVSAAAHMPFIGAVGPAFFLKETMEEVAAIKDIGNYFDRAEYIRWKAFRETDDARYIGLVMPRVLGRLPYGPDTVPVRSFNYVEQVKGPDHEKYLWTSAAFSFASNMVKSFVNNGWCVQIRGPQAGGAVKDLPIHLYDLGTGNQVKIPSEVMIPETREFEFASLGFIPLSYYKNRDYACFFSANSAQKPALYDTADATANSRINARLPYIFLLSRIAHYLKMIQRENIGTTKDRRLLELELNTWVRSLVTEMTDPGDELQASHPLRDASVVVEDIEDNPGFFRVKLYAVPHFQVEGMDVNLSLVSQMPKAKA”, “not soluble”; under “MAHHHHHHMQICPEGKGDSAASELLRFSDADGAVVREVLLDALCRVVPASLFSDAAALENVDEAELCVLLRYATEIQEQNAAFFQVMGGSEVMSRPERAATTEGRRVLQHFTRLVLARCRHLLHHHDGPPPTLLSGDAENIPFVDLQLYADHNHPEVRVHQKIGRANAQGLRYAGLQSTASTTMAELLSRLESANQRMAAGARGLRCDLLRHVAQKAALGKSKLTLEDVTRALPLLAAQMGKTSEQQVKSTYERLLTAMSTTIAVALQQPQKPACILALLEGLAGCHYTPSSYKLLEMVMLRMMMRGAFTLSDAGRCLIAMLQVVGPQKVSQSVKQAIAMRVVAAVDARSDSTAADVLAVLRALRYSCYSSFASLVCLVSKSPLMGNTANWQPSEHVRYAVLLAAAAAALETEANSELGIAVSTTARERLLLGLSPTHPPSAVPPHSPACVGEDAYQECVTACAALDVSPVPPALTAWAHADIDARPVHSLCTPALAVSTMEALEAMSLAPSRWYTAYVNYLTDTLEQMQRRPLLEDDAETAVRCLFLQRAPGAVTRLASVLLEHEVDRLDQTLTRGAVVRDDARAPPVCTFQQRSLERQTSEGETETRLLRYCAALQHASREMLSTRSAEV”, “not soluble”.
Under “MMIMREILISECIELLRSHKFIVSKPLGRSCFDMVASKEDIRLILKILKNIDSLSRDQSKELKKISKILHGTPLIIGIRTRNAPMEHGVVYDRYNIKAVTFETFRDYLEGSPPMVYANRGGFFVKIDGKVLKEVREAMGISVGKLAEVAGVSRKAIYKYETQMANPSVDVALKIEEFLDVPLVKGIDLFEPVDDEDVENKLENLEDFKKEAINFLNELGFKSFVVEKAPFDAVAEKDMDNNLNILLTNIEEKDNEEVKRKALFVRELSRLLDGYSLLILEEKEKEYKNLPVVSIEELKKMDDALELIEHIKSMLRDIR” stands “soluble”; under “SNRIYTLFLQRNPDFKGGVSIAGHSLGSLILFDILTNQKDSLGDIDSEKDSLNIVMDQGDTPTLEEDLKKLQLSEFFDIFEKEKVDKEALALCTDRDLQEIGIPLGPRKKILNYFSTRKNSMGIKRPAPQPASGANIPKESEFCSSSNTRNGDYLDVGIGQVSVKYPRLIYKPEIFFAFGSPIGMFLTVRGLKRIDPNYRFPTCKGFFNIYHPFDPVAYRIEPMVVPGVEFEPMLIPHHKGRKRMHLELREGLTRMSMDLKNNLLGSLRMAWKSFTRAPYPALQASETPEETEAEPESTSEKPSDVNTEETSVAVKEEVLPINVGMLNGGQRIDYVLQEKPIESFNEYLFALQSHLCYWESEDTVLLVLKEIYQTQGIFLDQPLQ”, “soluble”.
